Test results published in a protein production outcome set (Wang et al. 2014).

experiment: label from the status in PepcDB records

Row | Sequence | protein production
1 | MRSLTHIAKIEPPPVRRVTYVKHYSIQPANLEFNAEGTPVSRDFDDVYFSNDNGLEETRYVFLGGNQLEVRFPEHPHPLFVVAESGFGTGLNFLTLWQAFDQFREAHPQAQLQRLHFISFEKFPLTRADLALAHQHWPELAPWAEQLQAQWPMPLPGCHRLLLDEGRVTLDLWFGDINELTSQLDDSLNQKVDAWFLDGFAPAKNPDMWTQNLFNAMARLARPGGTLATFTSAGFVRRGLQDAGFTMQKRKGFGRKREMLCGVMEQTLPLPCSAPWFNRTGSSKREAAIIGGGIASALLSLALLRRGWQVTLYCADEAPALGASGNRQGALYPLLSKHDEALNRFFSNAFTFARRFYDQLPVKFDHDWCGVTQLGWDEKSQHKIAQMLSMDLPAELAVAVEANAVEQITGVATNCSGITYPQGGWLCPAELTRNVLELAQQQGLQIYYQYQLQNLSRKDDCWLLNFAGDQQATHSVVVLANGHQISRFSQTSTLPVYSVAGQVSHIPTTPELAELKQVLCYDGYLTPQNPANQHHCIGASYHRGSEDTAYSEDDQQQNRQRLIDCFPQAQWAKEVDVSDKEARCGVRCATRDHLPMVGNVPDYEATLVEYASLAEQKDEAVSAPVFDDLFMFAALGSRGLCSAPLCAEILAAQMSDEPIPMDASTLAALNPNRLWVRKLLKGKAVKAG | failed
2 | MRSQPTVSVIVPARNEAGNIAAAVERLPELGAETELIFVEGHSRDQTWETIEQTVAEYQGPLKLLACRQTGKGKADAVRLGFDKASGDILMILDADLTVQPEDLGHFYRAIASGRGEFINGSRLVYPRSRLAMPGLNTLANRTFALIFSFLLGQPLKDTLCGTKVLWKTDYDRVAAGRKYFGDFDPFGDFDLLFGAAKLGLEIVEVPVRYQERSYGSSNIAHVREGLILARMCLYAAGKLKFPLEHHHHHH | failed
3 | MRSTTSTLMLIKKTAIAVSLAVGSMVISGCDTNEVAKEISQPTIRPALTEIVSPSANAQLRFNGVVRSAQRADLAFRMSSRVISVLVDEGQQVKKGQLLAQLDPRDAQTALESARVEYKNSKAEYTRGKAIYEKSQAIAKSDLDTLTTRYQLAKNRLDEAQRQLEYTQLHAPFDGVIGKKMIDNHVQIQANSPVLTVHNVDDLEVLINIPDSVMLGDLKGSKALAQISALRNETFPLVLSTYGTQADPITQTYPVVLTFEDLRGFNVLPGMTVKVVPVYSDEQDQASLLITVPLTAVVPDNQGGQFVWVVTQENKVQKRIISAGTLVSNRIVINDGLQTGERIITAGASSLKEGMEVRPYTDTLSSQVEK | failed
4 | MRTFTWRKGSLSKVNTCYVLAGGKSKRFGEDKLLYEIKGKKVIERVYETAKSVFKEVYIVAKDREKFSFLNAPVVLDEFEESASIIGLYTALKHAKEENVFVLSGDLPLMKKETVLYVLENFKEPVSVAKTEKLHTLVGVYSKKLLEKIEERIKKGDYRIWALLKDVGYNEVEIPEELRYTLLNMNTKEDLKRILAIENHY | not failed
5 | MRTGRSPPTPSTRCAVALVCSWSLIRVVRLSMARRSRCRLGMPSGVPGRCRRFSMTLTSLSGSTWNTRLLTAPISVRSCCTQPSWVVSRGLLVCLPSITPVLSRYGSLRSRCAWCRWLRPLTTTSPGSQRCWVPAGFGSRRTCPRTGLARRSATPLRTRCLSSSSRAVRMPRLVPYPSGCVMALRSMASSWTRQCVSLQLGTVGTATTIRLPRRCAESLMTEDYRLEFAEELVGVPDPFRRFWTPYRMAYISGENKPRGNRPEDGCPFCRAPQRSDEDALIVHRGEHCYVIMNLYPYGPGHMLVCPYRHVAGYVDATQDEVVEMAELTQDAIRTLQEVSRPQGFNVGINQGASGGAGVAAHLHQHVIPRWTGDTNFLPIVAGVRAVPQLLGDGRQMLADAWVGHA | failed
6 | MRTKILLLTFTLLSSFSVLSQGNDLEQGMYELNRGEFKAAIEQFRPLVNEGYAPAQYQMALVYLHGYSVRKDSMKALELFELSAAQNYPDAQFELALIYSDGKLVKQNLKKAFELTHKAANKDLPSAQFNLAVMYANGTGIKQDDFKASRWYQRAANQNYALAQFNLALLYSEGKGVEKSTELSYVWNTIASWNGYPNAEKSRLMDERDLSKLKIEKSIEKANDIYQKIRDQQEMKAKMAEKQNFY | failed
7 | MRTNKDRLVRISVVGEIAPAKMRSPYSVTTEGTVRVIPVLGGITYNVKVGDSAYGWAGDHVEPGVSVMARRKEEEIPLMTLSCIGNEVIVMSGDAKGSRGFVTGKHGGVNHVLVHFEEEVLGKLMVGDKILIKAWGQGLKLLDHPDVKVMNIDPDLFEKLGIQEKNGKIHVPVVAKIPAHMMGSGIGASSSASTDYDIMASNPEDLGVADLKLGDIVAIQDHDNSYGVGKYRKGAVSIGVVVHSACVSAGHGPGVVVIMTGDESKILPEEVERANISDYLVR | not failed
8 | MRTPRFLRAVHANRTTARDVSSLRLPLQPRRDRARPGAMRTGLQGSVGIQCQLQRQHCQRQVASHAHYCADRGAVHCDGIACLDRAIGFQQLQGALGLAQEMRARHDLLTRVAAFFDAVGLQTVECQLLWRPLFALALDQASEPQLQIRAPPLRIYARRFDRRCQCFFGVQQQGARQRSAAQIQHDTLRSEIGLRGARAFRCCEAAKGKQRGSADFQLAAEDETAELGGDLGRVAVRQQHQQVCIVLTQKCEDGNHAPLRRQPRIPLPLPNRQRLYVIGKLGMRERHCIRADQSDVLDILQGAKTLRNKIQVVSHGRGGLKSPSCESTMIGHPTPTPAQDSETQPSSQEHIPEKKPLPKEIGGRDGPEPTRYGDWEKNGRCIDF | failed
9 | MRTTADRIRHTVGFELIGLLIFAPLASLVFGYALHQMGLVGAVASLIAAVWNYVYNILFDRGMLRFTGQLRKTPAIRVLHAILFEGGLLLVFLPSVAWYLDMTLLDAFIMDIAVAGFYMVYALVYNWVYDAVFPIPGLKAKEDSQPADCPSAN | failed
10 | MRTVDVFHPQAASNSAAVHASPQTTVAFSPDGTHYASAGYDGRVVLWDRSGTSPRWVGRHSRLVNGVRFSPSGRLLASGSADKTCRIWEVATGRQVQLLARQPDDLNALAWLDENRLVTVSQDGTGRIWDIRTGVLQEGVIFHADHCMSVDAAPTGVLASCGEDATIRLWDTDGSLLRDLPQAGHAEMCRWSPDGTLLAASCDDGFVHIVRTDGELVTKVGPYTAAVKSVAWSQDGSRIVIGAYDSTIALWDIADCRPLVRWYGAHLWPRAVDWSADGRTVVAGTFSARPAVIDVPEIPADALPDEVREITLEASVPTHGVNHVSAAGEVLAAGGDNGTIRVWSHRGATATEVPVGNGSLVNTVAVSAELPGLVAYGSFSGRVGVADAVTGRDVAAVQREHPVNRAAWSPDGRRLAVADYEGGLDLYAWTGRELVPGVHYAGHDGAIKDVSWVDADRLVTYSTDRRAHLITTEGTLIRSFGGHGELINGGSVTTVAGRALLATVSRDRTSRIYDLETGELLQVLVGHDESAKCAAWHPGGEPLLVTGSYDFTGRLWVLDPKTLAPLHQHVLEGHGSAVSAVCWLGDDAVTASWDSKVFTWTPDADPARPPAAAEPATDWRVREGSR | failed
11 | MRTVVDYGAAIAFGVAYFVTKDFQKATWVLVAASAAALAIGYAVERRLAMLPLFFGGMALVFGTLGLIFGSDVFVKIKVTVINLALASFLVGGVLLKRQPLKVIMGEALHLPDAAWRTLTLRYGAYFAFVAIINEVVRNTQDTDTWVKFRLALLPVALVFVATQLPFMMKHMAKGDDAKAVEPPDAGF | failed
12 | MRVAILGCGYVGCALARRLLAAGHDVVGVCRSPDSLDAVRETGATAVRADVTDAASLAAVPDADAVVFAASSGGRGADAAREVYVDGLRTVVEQFGGRDDPPEQLVYTSSTGVYGDHDGDWVDEETPLDPTTEKTAALVDAERVALTDASEHGLDPTVVRFAGLYGPDRYRLTRYLDGPVTEGYLNMIHRDDAAGVVAFALTDADADVLLAVDDDPVSKWAFADWLADEAGVPQPAKQTVAERIAAGDLSTPAERRLRTSKRCSNARLTELGYSFAHPTFRSGYQAAIRAHERGEYK | failed
13 | MRVAVITDSHGNAYALEATLREVHAAAPDLIVNLGDQIEGCADPARAAALQADLGALEVRGNNEEKLWPDGRRTPLAQEVGAWLAAQVSPADRERLAALPLTARVEGLFACHGTPESAWDSLLWVWDAAGGFYRSRDPRELRRMVEPLGAEVVVCGHTHRAGATRVGDTLVVNCGAISDQVDGDPRARWTLLERRGGGWNVEFHNVAYDIAGAVAWARAHSPFGDFEAHLLESGEMTGRGTGGI | failed
14 | MRVDIWSDVVCPFCYIGKKRLEHVAAEAGIELDVHWHSFELDPDAPTSHDTSNTERLAKKYGRTFEEMQEMQQNIASMAAQEGIDFQWQKANSGNSFNAHRIIHLAQSKGLGNEAEEAFFHAYMTEGLAIGEREVVEEIASRIGLDHAEVEFVLDSNELSDFVRHDEKIAHEQLNISGVPFFVFDQKLALSGAQPKEVFLQVLQKALTQRENDAVAEASSDAVCSDDSCDIPQKS | failed
15 | MRVGALDVGEARIGLAVGEEGVPLASGRGYLVRKTLEEDVEALLDFVRREGLGKLVVGLPLRTDLKESAQAGKVLPLVEALRARGVEVELWDERFTTKLAQERLKHAPKRLRRDKGKLDELAAVVLLEDYLARGI | not failed
16 | MRVLITGATGGLGGAFARALKGHDLLLSGRRAGALAELAREVGARALPADLADELEAKALLEEAGPLDLLVHAVGKAGRASVREAGRDLVEEMLAAHLLTAAFVLKHARFQKGARAVFFGAYPRYVQVPGFAAYAAAKGALEAYLEAARKELLREGVHLVLVRLPAVATGLWAPLGGPPKGALSPEEAARKVLEGLFREPVPALLEV | not failed
17 | MRVLVIGATGHVGTYLVPRLVEAGHDVVTISRGAARPYTADRAWASVDQRQMDRVEMERKGDFGPAMRALNADIVIDMICFTLESAEQLVTALSGYVGHFLHTGTIWTHGYPVAVPTREEAPKSPFGDYGIQKAAIETYLLQQARLRGFPATIIHPGHIVGRGWAPLNPAGNFNLQVFSTLARGEALALPNFGLETVHHVHADDVAAMFMDAIANRNASLGESFHAVSEQALTLRGYAESMSRWFGRDPKLTFAPFDAWARGQAAEDAEATWEHIARSPNCSIAKARRLLGYGPRYTSLQAVQESVGWLLGQGRIKS | failed
18 | MRVNGLTKGFFILIVFIVTLAFFDVLSPYYSAILWAAILAVIFNPVKNKIRTRLGERNGLAALMTIVIICLIVFTPLAIILSSLAYELNLVYSKLQHNDTQFPTVVASLFAHLPGWARSFLADHNLDSAQQIQQQLSDAALKGGQYLAGSAFLIGKGTFGFTVSFGIMLYLLFFLLKDGPYLVLLILESLPLSSYVKQHLFAKFAAVARATVKGTVAVALAQGALGGFAFWIAGLDGSILWGALMAFLSLIPAVGSAIIWVPAAIYLFATGQLWQGAFIVGFFVIVIGLVDNILRPLLVGKDTRMPDYLILIATLGGMEIYGINGFVIGPLIAALFIACWNLLSGREHAGNTDEIDEEFIEEAKNSRNE | failed
19 | MRVQANSRSMGVLEDKARARTFYKYLSKVYDRVNTFIWTEEMRAEALSMLDIDAEDRVLDVGCGTGFGTEGLLKHTEHVYGLDQSPHQLTKAWEKFGKHDPVAFHFGDAERLPFKPDSFDVVWSSGSIEYWPHPVQGLRELRRVAKPGSQVLVVGPDYPASTVFRKLADAIMLFYDEDEADRMFREAGYEEIQHRVLRKEPNSPPAIVTVARAPAADD | failed
20 | MRVRTERLTLAGLSVLARIPEAPKALLLALHGLQGSKEHILALLPGYAERGFLLLAFDAPRHGEREGPPPSSKSPRYVEEVYRVALGFKEEARRVAEEAERRFGLPLFLAGGSLGAFVAHLLLAEGFRPRGVLAFIGSGFPMKLPQGQVVEDPGVLALYQAPPATRGEAYGGVPLLHLHGSRDLIVPLARMEKTLEALRPHYPEGRLARFVEEGAGHTLTPLMARVGLAFLEHWLEAR | not failed
21 | MRVSVVIPARNEEAYLPSALEAVLAQTLPPFEVIVVDNASTDRTREVAEAFGARVVFCGRKGVAYARQAGLLAARGEWVAMTDADSLPTPRWLERLAHKAPGAVAVYGPLRFYGVSPLEAAFSEWGYRAFLNLMALLGRPNLAGANMMVLKEAALKVGGFPEVEAREDVLLGWRLKALGPVRYARDALVLTSARRLQGGWGRFLLRQARNLLGDPRGYFGEAGERER | failed
